The values below come from US20180037631A1 (Bristol-Myers Squibb, published 2018).

Usually Kd stands for the equilibrium constant for the complex coming apart. A low value points to a tighter complex. Broadly, the IC50 is the concentration at which inhibition is half-maximal. Low readings indicate greater potency, high ones weaker potency. Broadly, the koff is the rate constant with which the complex falls apart. A higher koff goes with a short-lived complex. What is called kon is the second-order rate constant of association. Higher therefore signals fast association.

The target of assay [1] is T1, IGF1R-Fc (extracellular domain of human IGF1R aa 1-932 fused to hinge and constant regions of human IgG1) (human, UniProt P08069 31-932).
T1 construct: range 1-932; made in house by transient transfection, purified on Protein A; also called IGF-IR-Fc; not shown: hinge and constant regions of human IgG1
Put plainly: SPR Biacore. A general note: In SPR one partner is held on a chip, and binding of the other changes the refractive index at the surface.

The target in assay [2] is T2, IGF-IR on human tumour cells (H292, MCF-7, RH41) (human, UniProt P08069 31-1367).
T2 construct: whole, on cells; also called IGF1R; IGFR
In words: [125I]-IGF-I competition on MCF-7 cells.

The target in assay [3] is EGFR on the surface of human tumour cells (A431, H292) (human, UniProt P00533 25-1210). Put plainly: cell-based or functional assay.
In assay [4] the target is T2, IGF-IR on human tumour cells (H292, …). Put plainly: cell-based or functional assay.
Assay [5] has as its target T1, IGF1R-Fc (extracellular domain of human …). In words: SPR Biacore, IGF-IR-Fc captured on Protein A.
Assay [6] has as its target T2, IGF-IR on human tumour cells (H292, …). Put plainly: IGF-I competition for IGF-IR binding.
Assay [7] concerns the target T1, IGF1R-Fc (extracellular domain of human …).
Assay [8] concerns the target T2, IGF-IR on human tumour cells (H292, …). Put plainly: cell-based or functional assay. The source holds these as a separate data set.
Assay [9] has the same target. In words: cell-based or functional assay. This is another data set of the same source.
For assay [10] the target is unchanged. In words: cell-based or functional assay. This is another data set of the same source.

Like-named read-outs stand apart in the source and are kept apart here. Some results are limits rather than exact numbers.

B1: I1 IGF-IR 10Fn3-based binder, His-tagged monomer (designed binder)
chain: MGVSDVPRDLEVVAATPTSLLISWSARLKVARYYRITYGETGGNSPVQEFTVPKNVYTATISGLKPGVDYTITVYAVTRFRDYQPISINYRTEIDKPSQHHHHHH
Take B1: binding in [1] was put at a Kd of 0.11 nM. Besides, the IC50 in assay [2] stood at 8 nM. Moreover, the “inhibition of EGF-stimulated EGFR phosphorylation (Y1068), H292 cells, ELISA, IC50” value in assay [3] is > 6210 nM. Besides, the “inhibition of IGF1-stimulated IGF1R phosphorylation (Y1131), H292 cells, ELISA, IC50” value in assay [4] amounted to 18 nM. In assay [5], this molecule had a Kd of 0.11 nM. The 50% inhibitory concentration (IC50) in assay [6] was 8 nM. Also, in [7], the dissociation constant (Kd) was found to be 0.11 nM, the koff was 0.000434 s⁻¹ and the kon was determined as 3.84e+06 M⁻¹ s⁻¹. The “H292 pIGF-IR IC50 (ELISA)” value in assay [8] amounted to 0.2 nM. The “IC50, IGF1-stimulated IGFR phosphorylation, H292 cells, ELISA” value in assay [9] came out at 0.4 nM. Moreover, in assay [10], the “Inhibition of RH41 Proliferation IC50” value is 28 nM and the “Inhibition of pIGFR IC50” value came out at 0.2 nM.
